Read-outs that look alike come from different tables or passages of the source.
Tests used:
[1] = molecular target: T1, Hfq wild type (recombinant, full-length, non-tagged) (Escherichia coli, UniProt P0A6X3 1-102); experiment: 2D-PAGE/immunoblot of reconstituted complex
[2] = molecular target: T1, Hfq wild type (recombinant, …); experiment: 2D-PAGE/immunoblot of reconstituted complex; remark: listed apart in the source

T1 sequence (P0A6X3 whole entry): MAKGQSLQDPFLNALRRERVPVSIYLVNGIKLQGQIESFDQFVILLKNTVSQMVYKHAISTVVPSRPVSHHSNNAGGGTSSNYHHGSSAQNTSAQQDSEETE

B1: (rA)5 (ssRNA)
RNA: AAAAA
B1: binds [1].

B2: (rA)20 (ssRNA)
RNA: AAAAAAAAAAAAAAAAAAAA
B2: binds [2].

B3: (U)20 (ssRNA)
RNA: UUUUUUUUUUUUUUUUUUUU
B3: binds [2].
